Data: patent publication US20180264110A1 (STSCIENCES, published 2018)

T1: BTLA triple mutant (3NQ) (human, UniProt Q7Z6A9 31-289, limits assumed)
T1 construct: N to Q read from the label
T1 chain: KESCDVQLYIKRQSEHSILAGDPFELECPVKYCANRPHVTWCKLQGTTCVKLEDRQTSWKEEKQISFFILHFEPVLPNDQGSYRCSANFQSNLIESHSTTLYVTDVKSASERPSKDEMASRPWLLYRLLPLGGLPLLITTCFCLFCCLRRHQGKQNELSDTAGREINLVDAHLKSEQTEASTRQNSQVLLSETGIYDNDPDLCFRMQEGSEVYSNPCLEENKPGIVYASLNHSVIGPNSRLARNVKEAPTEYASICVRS


Columns and labels:
BTLA triple mutant (3NQ) = target: T1, BTLA triple mutant (3NQ); assay: Western blot
Protocol: (§1) Immunoblot analysis was performed as described previously (Lim et al., 2008, Gastroenterology, 135:21 28-40; and Lee et al., 2007, Cell, 130:440-455). Image acquisition and quantitation of band intensity were performed using a Chemdoc Imager (BioRad, Hercules, Calif., US). The secondary antibodies were anti-mouse or -rabbit Alexa Fluor 488 or 594, and nuclei were stained with 4′,6-diamidino-2-phenylindole (DAPI) (Life Technologies, Carlsbad, Calif., US).
(§2) In the Western blot assays, anti-BTLA mAbs were tested for their ability to recognize fully glycosylated wild-type BTLA and to recognize certain BTLA mutants lacking two (N75/2NQ, N94/2NQ, N116/2NQ) or all three (3NQ) of BTLA's N-glycosylation sites. […] Generally, the band intensities shown in the Western blots of FIG. 2 indicate the specific glycosylation motif recognized by each of the tested antibodies and the binding strength of the tested antibodies to the recognized glycosylation motifs.

N75/2NQ [1] = target: T2, N75/2NQ (human, UniProt Q7Z6A9); assay: Western blot of BTLA WT and glycosylation-site mutants probed with STC626 [continued]
T2 construct: double mutant, single glycosylation site N75; One member of the group m43; also called BTLA double mutant that retains only the N75 glycosylation site
Protocol: as §1, §2

N75/2NQ [2] = target: T2, N75/2NQ; assay: Western blot of BTLA WT and glycosylation-site mutants probed with STC613 [continued]
Protocol: as §1, §2

binding result (BTLA triple mutant (3NQ))	binding result (N75/2NQ [1])	binding result (N75/2NQ [2])	Binder
no binding	binds		STC626 (antibody, V domains shown) VH: QIQLVQSGPELKKPGETVKISCKASGYTFTNYGMNWVKQAPGKGLKWMGWINTNTGEPTYAEEFKGRIAFSLESSASTAYLQINNLKNEDTATYFCAREGVRRGGYFFDYWGQGTTLTVSS VL: DIQMTQSPASLSVSVGETVTITCRASENIYSNLAWYQQKQGKSPQLLVYAATNLADGVPSRFSGSGSGTQYSLKINSLQSEDFGSYHCQHFWGFPFTFGAGTKLEIKR
no binding		binds	STC613 (antibody, V domains shown, also called STM613) VH: EVQLQQSGAELVRPGASVKLSCTASGFNIRDDYVHWLKQRPDQGLEWIGRIDPANGKTKYDPKFQDKATITADTSSNTAYLQLSSLTSEDTAVYFCVREGGSNYDYAMDYWGQGTSVTVSS VL: not shown
